Measured values taken from patent publication US20150197564A1 (Regeneron, published 2015).

Assays:
bovine LPL [1] = target: T1, bovine LPL (bovine, UniProt P11151 29-478, limits assumed); test: cell-based or functional assay
T1 sequence (looked up): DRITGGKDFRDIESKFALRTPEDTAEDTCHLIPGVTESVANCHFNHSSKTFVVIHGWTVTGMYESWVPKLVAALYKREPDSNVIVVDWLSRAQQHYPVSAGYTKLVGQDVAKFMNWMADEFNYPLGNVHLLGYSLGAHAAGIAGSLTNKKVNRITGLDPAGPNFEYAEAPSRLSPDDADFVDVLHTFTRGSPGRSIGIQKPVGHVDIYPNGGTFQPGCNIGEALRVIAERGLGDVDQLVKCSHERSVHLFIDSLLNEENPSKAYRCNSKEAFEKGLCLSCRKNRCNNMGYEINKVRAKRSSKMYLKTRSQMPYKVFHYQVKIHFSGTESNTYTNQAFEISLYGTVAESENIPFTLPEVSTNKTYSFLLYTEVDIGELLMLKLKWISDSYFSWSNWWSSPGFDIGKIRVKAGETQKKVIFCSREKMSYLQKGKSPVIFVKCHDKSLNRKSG

bovine LPL [2] = target: T1, bovine LPL; test: cell-based or functional assay; remark: listed apart in the source

B1: mANGPTL3(17-240)-His (other)
chain: GAPSRVDPDLSSFDSAPSEPKSRFAMLDDVKILANGLLQLGHGLKDFVHKTKGQINDIFQKLNIFDQSFYDLSLRTNEIKEEEKELRRTTSTLQVKNEEVKNMSVELNSKLESLLEEKTALQHKVRALEEQLTNLILSPAGAQEHPEVTSLKSFVEQQDNSIRELLQSVEEQYKQLSQQHMQIKEIEKQLRKTGIQEPSENSLSSKSRAPRTTPPLQLNETENTEQDASHHHHHH
- IC50 for blocking LPL (bovine LPL [1]): 341 nM
- EC50 (nM), inhibition of LPL activity (bovine LPL [2]): 199 nM
